The record followed here is patent publication US20260207759A1 (SUZHOU SUNCADIA BIOPHARMACEUTICALS, published 2026).

Where two headings read alike, the source gives them in different places.

Usually EC50 stands for the concentration giving half of the maximal effect. By Kd is commonly meant the concentration at which binding is half-saturated. As a reminder, the koff is the first-order rate constant of dissociation. What is called kon is a measure of how fast the partners come together.

Assay [1] addresses T1, human CD40 on the cell surface (Raji cells, HEK-Blue CD40L cells, primary human B cells and DCs) (human, UniProt P25942 21-277).
T1 construct: whole, on cells; One entry is used for all cell-surface human CD40, endogenous or transfected; also called Raji cell surface human CD40
Briefly: flow cytometry (FACS) binding to Raji cells. (In general: A flow cytometer gives signals particle by particle.)

The target in assay [2] is T1, human CD40 on the cell surface (Raji …). Nature of the assay: cell-based or functional assay.
Assay [3] has the same target. Briefly: flow cytometry (FACS) binding to Raji cells. The source holds these as a separate data set.
Assay [4] shares this target. Briefly: cell-based or functional assay. This is another data set of the same source.
For assay [5] the target is unchanged. Briefly: cell-based or functional assay. This is another data set of the same source.
The target is the same in assay [6]. Briefly: cell-based or functional assay. This is another data set of the same source.
The target is the same in assay [7]. Briefly: cell-based or functional assay. This is another data set of the same source.
Assay [8] deals with T2, his-tagged human CD40 recombinant protein (h-CD40-his, Acrobiosystems Cat. #CD0-H5228) (human, UniProt P25942 21-193).
T2 construct: Purchased reagent; also called His-tagged human CD40 antigen; not shown: His tag
Briefly: SPR (Biacore), antibody captured on anti-human Fc chip, His-tagged CD40 as analyte, 1:1 model.

For assay [9], the target named is T3, his-tagged cynomolgus monkey CD40 recombinant protein (cyno-CD40-his, Acrobiosystems Cat. #CD0-C52H6) (cynomolgus monkey).
T3 construct: Purchased reagent
The description is as above.

For assay [10], the target named is T2, his-tagged human CD40 recombinant …. The assay is described as above. The source holds these as a separate data set.
Assay [11] deals with T3, his-tagged cynomolgus monkey CD40 …. The description is as above. This is another data set of the same source.
For assay [12], the target named is human FcRn antigen (purchased from AcroBiosystem) (human, UniProt P55899 24-297; P61769 21-119). Briefly: SPR (Biacore), antibody captured on anti-human Fab chip, human FcRn as analyte, steady state model.
human FcRn antigen (purchased from AcroBiosystem), sequence (P55899 24-297 limits assumed, chain 1 of 2): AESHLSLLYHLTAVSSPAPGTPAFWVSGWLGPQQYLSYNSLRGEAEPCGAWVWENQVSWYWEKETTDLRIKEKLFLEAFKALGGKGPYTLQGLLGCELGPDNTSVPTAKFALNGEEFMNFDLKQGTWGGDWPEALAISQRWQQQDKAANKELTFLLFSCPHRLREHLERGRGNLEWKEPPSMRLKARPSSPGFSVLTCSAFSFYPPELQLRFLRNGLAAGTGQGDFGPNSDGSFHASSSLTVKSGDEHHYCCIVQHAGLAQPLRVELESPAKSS
human FcRn antigen (purchased from AcroBiosystem), sequence (P61769 21-119 limits assumed, chain 2 of 2): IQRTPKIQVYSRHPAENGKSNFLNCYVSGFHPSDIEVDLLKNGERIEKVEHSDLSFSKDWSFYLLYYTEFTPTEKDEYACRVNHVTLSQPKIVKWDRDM

T2 sequence (P25942 21-193 limits assumed): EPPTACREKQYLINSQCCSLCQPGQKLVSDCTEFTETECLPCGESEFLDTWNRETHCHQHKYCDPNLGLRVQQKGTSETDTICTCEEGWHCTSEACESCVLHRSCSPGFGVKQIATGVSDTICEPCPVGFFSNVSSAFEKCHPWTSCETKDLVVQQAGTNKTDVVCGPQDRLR
T1 sequence (P25942 21-277): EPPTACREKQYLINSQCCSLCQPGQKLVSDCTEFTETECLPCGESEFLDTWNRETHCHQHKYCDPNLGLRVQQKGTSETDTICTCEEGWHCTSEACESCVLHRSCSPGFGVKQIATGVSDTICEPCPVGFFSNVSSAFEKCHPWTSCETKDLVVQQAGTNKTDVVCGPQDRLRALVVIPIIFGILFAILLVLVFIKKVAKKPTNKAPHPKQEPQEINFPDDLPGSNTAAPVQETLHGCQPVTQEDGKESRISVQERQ

B1: 9E6-L2H1 humanized anti-CD40 antibody (antibody, human IgG1, V domains shown)
VH: EVQLQESGPGLVKPSDTLSLTCTVSGFSLSSYDMSWIRQPPGKGLEWIGAIGGAGGTYYASWAKSRVTISVDTSLNQVSLKLSSVTAADTAVYYCARGWTRLDLWGQGTLVTVSS
VL: DIQLTQSPSFLSASVGDRVTITCQASEDISSNLAWYQQKPGKPPKLLIFPASNLASGVPSRFSGSGSGTEFTLTISSLQPEDFATYYCQGGYWTSTSNFGSGFGGGTKVEIK
Take B1: it took 1990 pM to reach a half-maximal effect in assay [1] (EC50).

B2: 9E6-L1H2 humanized anti-CD40 antibody (antibody, human IgG1, V domains shown)
VH: QVQVQESGPGLVKPSDTLSLTCTVSGFSLSSYDMSWIRQPPGKGLEWIGAIGGAGGTYYASWAKSRVTISVDTSLNQVSLKLSSVTAADTAVYYCARGWTRLDLWGQGTLVTVSS
VL: DIQLTQSPSFLSASVGDRVTITCQASEDISSNLAWYQQKPGKPPKLLIFPASNLASGVPSRFSGSGSGTEFTLTISSLQPEDFATYYCQGGYWTSTSNFGNVFGGGTKVEIK
In [1], B2 displayed an EC50 of 1050 pM.

B3: 9E6-L1H1 humanized anti-CD40 antibody (antibody, human IgG1, V domains shown)
VH: EVQLQESGPGLVKPSDTLSLTCTVSGFSLSSYDMSWIRQPPGKGLEWIGAIGGAGGTYYASWAKSRVTISVDTSLNQVSLKLSSVTAADTAVYYCARGWTRLDLWGQGTLVTVSS
VL: DIQLTQSPSFLSASVGDRVTITCQASEDISSNLAWYQQKPGKPPKLLIFPASNLASGVPSRFSGSGSGTEFTLTISSLQPEDFATYYCQGGYWTSTSNFGNVFGGGTKVEIK
In [1], B3 gave an EC50 of 1080 pM.

B4: 9E6-L3H1 humanized anti-CD40 antibody (antibody, human IgG1, V domains shown)
VH: EVQLQESGPGLVKPSDTLSLTCTVSGFSLSSYDMSWIRQPPGKGLEWIGAIGGAGGTYYASWAKSRVTISVDTSLNQVSLKLSSVTAADTAVYYCARGWTRLDLWGQGTLVTVSS
VL: DIQLTQSPSFLSASVGDRVTITCQASEDISSNLAWYQQKPGKPPKLLIFPASNLASGVPSRFSGSGSGTEFTLTISSLQPEDFATYYCQGGYWTSTSNFGTGFGGGTKVEIK
As for B4, the EC50 in [1] came to 1060 pM.

B5: 9E6-L4H1 humanized anti-CD40 antibody (antibody, human IgG1, V domains shown)
VH: EVQLQESGPGLVKPSDTLSLTCTVSGFSLSSYDMSWIRQPPGKGLEWIGAIGGAGGTYYASWAKSRVTISVDTSLNQVSLKLSSVTAADTAVYYCARGWTRLDLWGQGTLVTVSS
VL: DIQLTQSPSFLSASVGDRVTITCQASEDISSNLAWYQQKPGKPPKLLIFPASNLASGVPSRFSGSGSGTEFTLTISSLQPEDFATYYCQGGYWTSTSNFGQGFGGGTKVEIK
In assay [1], B5 yielded a 50% effective concentration (EC50) of 928 pM.

B6: 9E6-L3H2 humanized anti-CD40 antibody (antibody, human IgG1, V domains shown)
VH: QVQVQESGPGLVKPSDTLSLTCTVSGFSLSSYDMSWIRQPPGKGLEWIGAIGGAGGTYYASWAKSRVTISVDTSLNQVSLKLSSVTAADTAVYYCARGWTRLDLWGQGTLVTVSS
VL: DIQLTQSPSFLSASVGDRVTITCQASEDISSNLAWYQQKPGKPPKLLIFPASNLASGVPSRFSGSGSGTEFTLTISSLQPEDFATYYCQGGYWTSTSNFGTGFGGGTKVEIK
For the molecule B6, in assay [1], the response was half-maximal at 1150 pM (EC50).

B7: 9E6-L2H2 humanized anti-CD40 antibody (antibody, human IgG1, V domains shown)
VH: QVQVQESGPGLVKPSDTLSLTCTVSGFSLSSYDMSWIRQPPGKGLEWIGAIGGAGGTYYASWAKSRVTISVDTSLNQVSLKLSSVTAADTAVYYCARGWTRLDLWGQGTLVTVSS
VL: DIQLTQSPSFLSASVGDRVTITCQASEDISSNLAWYQQKPGKPPKLLIFPASNLASGVPSRFSGSGSGTEFTLTISSLQPEDFATYYCQGGYWTSTSNFGSGFGGGTKVEIK
For B7, the 50% effective concentration (EC50) in assay [1] amounted to 1660 pM.

B8: 9E6 human-rabbit chimeric anti-CD40 antibody (antibody, V domains shown)
VH: QSVRESEGGLVKPTDTLTLTCTVSGFSLSSYDMSWVRQAPGNGLEWIGAIGGAGGTYYASWAKSRSTITRNTNLNTVTLKMSSLTAADTATYFCARGWTRLDLWGQGTLVTVSS
VL: DIVLTQTPSPVSGAVGGTVTIKCQASEDISSNLAWYQQKPGQPPKLLIFPASNLASGVSSRFKGSGSGTEFTLTISDLECADAATYYCQGGYWTSTSNFGNGFGGGTEVVVK
notes: Rabbit variable regions joined to a human IgG1 constant region with N297A (Eu numbering) and a human kappa constant region
For the molecule B8, the “Reporter gene cell activity IC50 (SEAP, HEK-Blue CD40L cells stimulated with CD40L)” value in assay [2] came to 221 pM. Moreover, the figures for the EC50 in assay [3] and in [1] were 608 pM and 895 pM, respectively.

B9: 9E6-L4H2 humanized anti-CD40 antibody (antibody, human IgG1, kappa, N297A)
heavy: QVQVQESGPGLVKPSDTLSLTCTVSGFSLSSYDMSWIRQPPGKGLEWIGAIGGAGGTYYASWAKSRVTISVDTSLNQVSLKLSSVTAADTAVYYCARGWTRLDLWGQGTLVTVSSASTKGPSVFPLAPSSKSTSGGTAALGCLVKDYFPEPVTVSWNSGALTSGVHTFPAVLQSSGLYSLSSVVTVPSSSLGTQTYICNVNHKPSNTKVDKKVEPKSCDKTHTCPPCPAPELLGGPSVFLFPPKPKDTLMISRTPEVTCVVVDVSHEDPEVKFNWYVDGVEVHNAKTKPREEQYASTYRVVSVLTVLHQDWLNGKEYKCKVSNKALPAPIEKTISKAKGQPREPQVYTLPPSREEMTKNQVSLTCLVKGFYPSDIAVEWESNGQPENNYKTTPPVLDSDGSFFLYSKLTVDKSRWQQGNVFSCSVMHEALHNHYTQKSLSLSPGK
light: DIQLTQSPSFLSASVGDRVTITCQASEDISSNLAWYQQKPGKPPKLLIFPASNLASGVPSRFSGSGSGTEFTLTISSLQPEDFATYYCQGGYWTSTSNFGQGFGGGTKVEIKRTVAAPSVFIFPPSDEQLKSGTASVVCLLNNFYPREAKVQWKVDNALQSGNSQESVTEQDSKDSTYSLSSTLTLSKADYEKHKVYACEVTHQGLSSPVTKSFNRGEC
notes: human IgG1 N297A (Eu) heavy chain and kappa light chain
Take B9: the “IC50 for the inhibition of CD40 reporter gene cell activity (Experiment 2)” value in assay [4] is 500 pM. Further, in assay [5], the “B cell activation assay, CD19+CD69+ %, IC50” value was found to be 140 pM and the “B cell activation assay, CD19+CD69+ MFI, IC50” value is 70 pM. Further, in assay [6], the “IC50 in DC cell activation assay system, CD80 MFI” value came out at 3440 pM; the “IC50 in DC cell activation assay system, CD86 MFI” value came to 3720 pM; the “IC50 in DC cell activation assay system, IL-12/23 p40” value came out at 1850 pM; the “IC50 in DC cell activation assay system, TNFα” value was determined as 700 pM. In assay [7], the “B cell activation assay, CD19+CD69+%, Donor 1, IC50” value is 440 pM and the “B cell activation assay, CD19+CD69+%, Donor 2, IC50” value stood at 520 pM. The same molecule gave an EC50 in assay [1] of 870 pM. Moreover, in assay [8], the dissociation constant (Kd) is 536 pM, the off-rate constant (koff) was 0.000221 s⁻¹ and the kon was 413000 M⁻¹ s⁻¹. Also, in assay [9], the Kd was 121 pM, the koff worked out at 6.23e-05 s⁻¹ and the kon turned out to be 514000 M⁻¹ s⁻¹. In addition, in [10], the Kd amounted to 926 pM, the koff came out at 0.000377 s⁻¹ and the kon came to 407000 M⁻¹ s⁻¹. In [11], the Kd was 294 pM, the koff was 0.000138 s⁻¹ and the association rate constant (kon) was determined as 468000 M⁻¹ s⁻¹. In [12], this molecule returned a Kd of 293000 pM.

B10: 9E6-L4H2-AAYTE anti-CD40 antibody (IgG1 with L234A, L235A, M252Y, S254T, T256E) (antibody)
heavy: QVQVQESGPGLVKPSDTLSLTCTVSGFSLSSYDMSWIRQPPGKGLEWIGAIGGAGGTYYASWAKSRVTISVDTSLNQVSLKLSSVTAADTAVYYCARGWTRLDLWGQGTLVTVSSASTKGPSVFPLAPSSKSTSGGTAALGCLVKDYFPEPVTVSWNSGALTSGVHTFPAVLQSSGLYSLSSVVTVPSSSLGTQTYICNVNHKPSNTKVDKKVEPKSCDKTHTCPPCPAPEAAGGPSVFLFPPKPKDTLYITREPEVTCVVVDVSHEDPEVKFNWYVDGVEVHNAKTKPREEQYNSTYRVVSVLTVLHQDWLNGKEYKCKVSNKALPAPIEKTISKAKGQPREPQVYTLPPSREEMTKNQVSLTCLVKGFYPSDIAVEWESNGQPENNYKTTPPVLDSDGSFFLYSKLTVDKSRWQQGNVFSCSVMHEALHNHYTQKSLSLSPGK
light: DIQLTQSPSFLSASVGDRVTITCQASEDISSNLAWYQQKPGKPPKLLIFPASNLASGVPSRFSGSGSGTEFTLTISSLQPEDFATYYCQGGYWTSTSNFGQGFGGGTKVEIKRTVAAPSVFIFPPSDEQLKSGTASVVCLLNNFYPREAKVQWKVDNALQSGNSQESVTEQDSKDSTYSLSSTLTLSKADYEKHKVYACEVTHQGLSSPVTKSFNRGEC
B10: the affinity in assay [12], expressed as Kd, was 39800 pM.
